# Assays:
# EGFRvIII = EGFRvIII (UniProt P00533 25-1210); test: cell-based or functional assay
# human CD3 [1] = biological target: T1, human CD3 (human, UniProt P07766 23-207); test: flow cytometry on Jurkat cells, non-linear regression (rounded restatement of the FIG. 3 value)
# T1 construct: whole, on cells; CD3 is a multi-chain complex; also called CD3 on human CD3+ Jurkat cells; CD3+ human T cell line (Jurkat)
# Source text: (§1) Cell-surface bound tandem diabody was detected by anti-His mAb followed by FITC-conjugated goat anti-mouse IgG. To calculate KD, mean fluorescence intensities determined by flow cytometry were modeled as sigmoidal dose-response by non-linear regression.
# (§2) FIGS. 3A and 3B present binding of titrated tandem diabodies TandAb D, containing var_y, and TandAb E (SEQ ID NO:12), containing var_z, to a CD3⁺ human T cell line (Jurkat) and a CD3⁺ cynomolgus cell line (HSC-F), as determined by flow cytometric analysis.
# human CD3 [2] = biological target: T1, human CD3; test: flow cytometry on human CD3+ Jurkat cells, anti-His mAb and FITC goat anti-mouse IgG, non-linear regression of MFI
# Source text: as §1, §2
# cynomolgus CD3 = biological target: T2, cynomolgus CD3 (cynomolgus, UniProt Q95LI5 22-198); test: flow cytometry on cynomolgus CD3+ HSC-F cells, anti-His mAb and FITC goat anti-mouse IgG, non-linear regression of MFI
# T2 construct: whole, on cells; CD3 is a multi-chain complex; also called CD3 on cynomolgus CD3+ HSC-F cells; cynomolgus CD3-expressing cell line (HSC-F)
# T2 sequence (Q95LI5 22-198): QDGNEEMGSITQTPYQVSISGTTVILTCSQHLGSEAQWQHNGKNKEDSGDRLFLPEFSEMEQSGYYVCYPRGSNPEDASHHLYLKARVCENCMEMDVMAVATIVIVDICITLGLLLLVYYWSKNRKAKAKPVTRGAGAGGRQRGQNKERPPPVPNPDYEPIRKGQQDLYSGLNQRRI
# Source text: as §1, §2
# human CD3 [3] = biological target: T1, human CD3; test: flow cytometry on Jurkat cells; reference TandAb E
# Source text: as §1, §2
# T1 sequence (P07766 23-207): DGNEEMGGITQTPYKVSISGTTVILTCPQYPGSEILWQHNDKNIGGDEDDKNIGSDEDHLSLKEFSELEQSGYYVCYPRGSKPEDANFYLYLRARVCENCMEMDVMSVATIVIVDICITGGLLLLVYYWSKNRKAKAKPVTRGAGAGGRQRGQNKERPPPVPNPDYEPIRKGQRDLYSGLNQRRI
Binder,"EC50, 4 h calcein release cytotoxicity assay (EGFRvIII)",Kd (human CD3 [1]),Kd (human CD3 [2]),Kd (cynomolgus CD3),fold higher affinity than TandAb E (human CD3 [3])
TandAb G (SEQ ID NO:14) (bispecific antibody) DIQMTQSPSSLSASVGDRVTITCRSSTGAVTTSNYANWVQQKPGKAPKGLIGGTNKRAPGVPSRFSGSLIGDKATLTISSLQPEDFATYYCALWYSNLWVFGQGTKVEIKGGSGGSEVQLVQSGAEVKKPGESLKISCKGSGYSFTSYWIGWVRQMPGKGLEWMGIIYPGDSDTRYSPSFQGQVTISADKSISTAYLQWSSLKASDTAMYYCARLGSSWTNDAFDIWGQGTMVTVSSGGSGGSSYELTQPPSVSVSPGQTARITCSGDALPKQYAYWYQQKPGQAPVLVIYKDSERPSGIPERFSGSSSGTTVTLTISGVQAEDEADYYCQSADSSGTPLIVFGTGTKLTVLGGSGGSEVQLVESGGGLVQPGGSLRLSCAASGFTFSTYAMNWVRQAPGKGLEWVGRIRSKYNNYATYYADSVKDRFTISRDDSKNSLYLQMNSLKTEDTAVYYCARHGNFGNSYVSWFAYWGQGTLVTVSSAAAGSHHHHHH,0.129 nM,–,–,–,–
"TandAb D (var_y) (SEQ ID NO:11) (bispecific antibody, Homodimeric tandem diabody; Detected by anti-His mAb) DIQMTQSPSSLSASVGDRVTITCRSSTGAVTTSNYANWVQQKPGKAPKALIGGTNKRAPGVPSRFSGSLIGDKATLTISSLQPEDFATYYCALWYSNLWVFGQGTKVEIKGGSGGSEVQLVQSGAEVKKPGESLKISCKGSGYSFTSYWIGWVRQMPGKGLEWMGIIYPGDSDTRYSPSFQGQVTISADKSISTAYLQWSSLKASDTAMYYCARLGSSWTNDAFDIWGQGTMVTVSSGGSGGSSYELTQPPSVSVSPGQTARITCSGDALPKQYAYWYQQKPGQAPVLVIYKDSERPSGIPERFSGSSSGTTVTLTISGVQAEDEADYYCQSADSSGTPLIVFGTGTKLTVLGGSGGSEVQLVESGGGLVQPGGSLRLSCAASGFTFSTYAMNWVRQAPGKGLEWVGRIRSKYNNYATYYADSVKDRFTISRDDSKNSLYLQMNSLKTEDTAVYYCARHGNFGNSYVSYFAYWGQGTLVTVSSAAAGSHHHHHH",0.122 nM,1.8 nM,1.82 nM,3.4 nM,> 10 fold
"TandAb E (var_z) (SEQ ID NO:12) (bispecific antibody, Homodimeric tandem diabody; Detected by anti-His mAb) DIQMTQSPSSLSASVGDRVTITCRSSTGAVTTSNYANWVQQKPGKAPKGLIGGTNKRAPGVPSRFSGSLIGDKATLTISSLQPEDFATYYCALWYSNLWVFGQGTKVEIKGGSGGSEVQLVQSGAEVKKPGESLKISCKGSGYSFTSYWIGWVRQMPGKGLEWMGIIYPGDSDTRYSPSFQGQVTISADKSISTAYLQWSSLKASDTAMYYCARLGSSWTNDAFDIWGQGTMVTVSSGGSGGSSYELTQPPSVSVSPGQTARITCSGDALPKQYAYWYQQKPGQAPVLVIYKDSERPSGIPERFSGSSSGTTVTLTISGVQAEDEADYYCQSADSSGTPLIVFGTGTKLTVLGGSGGSEVQLVESGGGLVQPGGSLRLSCAASGFTFSTYAMNWVRQAPGKGLEWVGRIRSKYNNYATYYADSVKDRFTISRDDSKNSLYLQMNSLKTEDTAVYYCARHGNFGNSYVSHFAYWGQGTLVTVSSAAAGSHHHHHH",–,27.7 nM,27.7 nM,24.3 nM,–

# Reference: patent publication US20160039934A1 (AFFIRMED, published 2016)
